6 molecules from publication PMC5648754, “CryoEM structure of Saccharomyces cerevisiae U1 snRNP offers insight into alternative splicing” (Nature Communications, 2017) can be followed below.

To fix the notation:
B1: yeast Prp40 (natural protein, S. cerevisiae, UniProt P33203 1-583, looked up)
chain: MSIWKEAKDASGRIYYYNTLTKKSTWEKPKELISQEELLLRENGWKAAKTADGKVYYYNPTTRETSWTIPAFEKKVEPIAEQKHDTVSHAQVNGNRIALTAGEKQEPGRTINEEESQYANNSKLLNVRRRTKEEAEKEFITMLKENQVDSTWSFSRIISELGTRDPRYWMVDDDPLWKKEMFEKYLSNRSADQLLKEHNETSKFKEAFQKMLQNNSHIKYYTRWPTAKRLIADEPIYKHSVVNEKTKRQTFQDYIDTLIDTQKESKKKLKTQALKELREYLNGIITTSSSETFITWQQLLNHYVFDKSKRYMANRHFKVLTHEDVLNEYLKIVNTIENDLQNKLNELRLRNYTRDRIARDNFKSLLREVPIKIKANTRWSDIYPHIKSDPRFLHMLGRNGSSCLDLFLDFVDEQRMYIFAQRSIAQQTLIDQNFEWNDADSDEITKQNIEKVLENDRKFDKVDKEDISLIVDGLIKQRNEKIQQKLQNERRILEQKKHYFWLLLQRTYTKTGKPKPSTWDLASKELGESLEYKALGDEDNIRRQIFEDFKPESSAPTAESATANLTLTASKKRHLTPAVELDY
notes: Prp40 of S. cerevisiae U1 snRNP; not modelled in the structure; source: endogenous, S. cerevisiae; co-purified in U1 snRNP through the TAP tag on U1A
B2: yeast Prp42 (natural protein, S. cerevisiae, UniProt Q03776 1-544, looked up)
chain: MDKYTALIHDENFSTLTLNVSRYPKSLAYWEKLLNYIVKASAPICKSTEPQLLKLIRCTYSSMLNEFPYLENYYIDFALLEYKLGNVSMSHKIFQRGLQAFNQRSLLLWTSYLKFCNNVISHQKQLFKKYETAEEYVGLHFFSGEFWDLYLEQISSRCTSSKKYWNVLRKILEIPLHSFSKFYALWLQRIDDIMDLKQLSQLTSKDELLKKLKIDINYSGRKGPYLQDAKKKLKKITKEMYMVVQYQVLEIYSIFESKIYINYYTSPETLVSSDEIETWIKYLDYTITLQTDSLTHLNFQRALLPLAHYDLVWIKYSKWLINSKNDLLGAKNVLLMGLKFSLKKTEIIKLLYSVICKLNEYVLLRNLLEKIESSYSDNVENVDDFEIFWDYLQFKTFCQNSLYSSRYSDSQSNGLLNKELFDKVWKRLSCKEKKSGQEILLNNLVQFYSKDTVEFVEKNIFQKIIEFGWEYYLQNGMFWNCYCRLIYFDTSRSYLDKRQYIVRKIWPQIDKKFAQSVLPSLTEFCESYFPEEMDTLEEMFTEEP
notes: Prp42 of S. cerevisiae, 544 residues; residues 2-540 modelled; source: endogenous, S. cerevisiae; co-purified in U1 snRNP through the TAP tag on U1A
B3: yeast SmG (natural protein, S. cerevisiae, UniProt P40204 1-77, looked up)
chain: MVSTPELKKYMDKKILLNINGSRKVAGILRGYDIFLNVVLDDAMEINGEDPANNHQLGLQTVIRGNSIISLEALDAI
notes: SmG of S. cerevisiae, member of the Sm ring of U1 snRNP; source: endogenous, S. cerevisiae; co-purified in U1 snRNP through the TAP tag on U1A
B4: yeast U1C (natural protein, S. cerevisiae, UniProt Q05900 1-231, looked up)
chain: MTRYYCEYCHSYLTHDTLSVRKSHLVGKNHLRITADYYRNKARDIINKHNHKRRHIGKRGRKERENSSQNETLKVTCLSNKEKRHIMHVKKMNQKELAQTSIDTLKLLYDGSPGYSKVFVDANRFDIGDLVKASKLPQRANEKSAHHSFKQTSRSRDETCESNPFPRLNNPKKLEPPKILSQWSNTIPKTSIFYSVDILQTTIKESKKRMHSDGIRKPSSANGYKRRRYGN
notes: U1C of S. cerevisiae U1 snRNP, 231 residues; NTD residues 1-48; residues 3-47 and 48-195 modelled; also called Yhc1; source: endogenous, S. cerevisiae; co-purified in U1 snRNP through the TAP tag on U1A
B5: yeast Nam8 (natural protein, S. cerevisiae, UniProt Q00539 1-523, looked up)
chain: MSYKQTTYYPSRGNLVRNDSSPYTNTISSETNNSSTSVLSLQGASNVSLGTTGNQLYMGDLDPTWDKNTVRQIWASLGEANINVRMMWNNTLNNGSRSSMGPKNNQGYCFVDFPSSTHAANALLKNGMLIPNFPNKKLKLNWATSSYSNSNNSLNNVKSGNNCSIFVGDLAPNVTESQLFELFINRYASTSHAKIVHDQVTGMSKGYGFVKFTNSDEQQLALSEMQGVFLNGRAIKVGPTSGQQQHVSGNNDYNRSSSSLNNENVDSRFLSKGQSFLSNGNNNMGFKRNHMSQFIYPVQQQPSLNHFTDPNNTTVFIGGLSSLVTEDELRAYFQPFGTIVYVKIPVGKCCGFVQYVDRLSAEAAIAGMQGFPIANSRVRLSWGRSAKQTALLQQAMLSNSLQVQQQQPGLQQPNYGYIPSSTCEAPVLPDNNVSSTMLPGCQILNYSNPYANANGLGSNNFSFYSNNNATNTQATSLLADTSSMDLSGTGGQQVIMQGSEAVVNSTNAMLNRLEQGSNGFMFA
notes: Nam8 of S. cerevisiae, 523 residues; inter-RRM linker 289-302 and RRM3 303-383 and C-terminal tail modelled; source: endogenous, S. cerevisiae; co-purified in U1 snRNP through the TAP tag on U1A
B6: yeast Snu56 (natural protein, S. cerevisiae, UniProt Q03782 1-492, looked up)
chain: MRPRRRGLAYHHTKPKGQLSQGHYPTTSNDGQRRKVGNSEAFQSFDIWKNLDRIRSTKKNAGQFIKGSLLILPMRTEDKQQFDECMDELHKYISKDILRCYPQKEQKDEGMLFYIVLKDFNILDSCFVLSVLLAFQKRLWMAPSEKSYFRVPKNINLTGSFYLPKNIETGRGHIITSYRREQPSSSIVEVGFNVVPDFQQFQVKACHVSKFMNELSNFFSQVEFGKCEANVINYFKREYNRTYSQISLALYELPLIGDGLFDIKSYISKTRPIIETSKAQMIKHISEMKAYNEISGLQGDQFPRQQRPLSNSPSSNSISSSQTIEAGATSYQTQPQRHAVNKPSNVLNSSNRHSGPKTFEDGRYSEGNKPGFMTQDEIKQHCIGTIKASMDAVKKKSSYQILKTYVRCPRQNYIDIVYQNLNDLRSKTNCNIVVLNLNNLHESQMWLESLNTTNYTIFAQAPHPSTIRVISIGGVGEYIVKALELILNILEH
notes: Snu56 of S. cerevisiae, 492 residues; N-terminal domain 47-254 and long helix 255-303 modelled; source: endogenous, S. cerevisiae; co-purified in U1 snRNP through the TAP tag on U1A

What all share (details): both partners purified
One test has as its target T1, yeast Snu71 (S. cerevisiae, UniProt P53207 1-620).
T1 construct: Snu71 of S. cerevisiae U1 snRNP; not modelled in the structure; source: endogenous, S. cerevisiae; co-purified in U1 snRNP through the TAP tag on U1A
T1 sequence (looked up): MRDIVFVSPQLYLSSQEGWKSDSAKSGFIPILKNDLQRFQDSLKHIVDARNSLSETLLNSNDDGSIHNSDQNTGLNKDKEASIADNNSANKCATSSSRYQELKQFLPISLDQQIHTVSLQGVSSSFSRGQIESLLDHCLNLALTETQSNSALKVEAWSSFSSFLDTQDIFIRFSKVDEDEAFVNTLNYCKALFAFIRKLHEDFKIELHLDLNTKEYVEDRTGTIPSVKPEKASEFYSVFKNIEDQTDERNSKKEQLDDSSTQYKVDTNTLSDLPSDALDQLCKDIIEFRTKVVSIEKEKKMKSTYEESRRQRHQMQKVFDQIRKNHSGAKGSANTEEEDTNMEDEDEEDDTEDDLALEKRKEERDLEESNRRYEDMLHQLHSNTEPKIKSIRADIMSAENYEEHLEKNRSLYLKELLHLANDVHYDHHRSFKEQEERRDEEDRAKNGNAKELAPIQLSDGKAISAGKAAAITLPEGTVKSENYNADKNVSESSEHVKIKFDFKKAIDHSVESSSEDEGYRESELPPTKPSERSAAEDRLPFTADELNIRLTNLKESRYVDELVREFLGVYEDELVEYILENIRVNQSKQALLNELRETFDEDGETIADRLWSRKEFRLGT
The test is described as follows: cross-linking; purified yeast U1 snRNP cross-linked with 100 uM BS3, 30 min, room temperature; trypsin digest, mass spectrometry.

The target in the next test is T2, yeast Prp39 (S. cerevisiae, UniProt P39682 1-629).
T2 construct: Prp39 of S. cerevisiae, 629 residues; C-terminal TPR domain 326-552 and C-terminal region 561-627 built, 43-285 docked as homology model; source: endogenous, S. cerevisiae; co-purified in U1 snRNP through the TAP tag on U1A
T2 sequence (looked up): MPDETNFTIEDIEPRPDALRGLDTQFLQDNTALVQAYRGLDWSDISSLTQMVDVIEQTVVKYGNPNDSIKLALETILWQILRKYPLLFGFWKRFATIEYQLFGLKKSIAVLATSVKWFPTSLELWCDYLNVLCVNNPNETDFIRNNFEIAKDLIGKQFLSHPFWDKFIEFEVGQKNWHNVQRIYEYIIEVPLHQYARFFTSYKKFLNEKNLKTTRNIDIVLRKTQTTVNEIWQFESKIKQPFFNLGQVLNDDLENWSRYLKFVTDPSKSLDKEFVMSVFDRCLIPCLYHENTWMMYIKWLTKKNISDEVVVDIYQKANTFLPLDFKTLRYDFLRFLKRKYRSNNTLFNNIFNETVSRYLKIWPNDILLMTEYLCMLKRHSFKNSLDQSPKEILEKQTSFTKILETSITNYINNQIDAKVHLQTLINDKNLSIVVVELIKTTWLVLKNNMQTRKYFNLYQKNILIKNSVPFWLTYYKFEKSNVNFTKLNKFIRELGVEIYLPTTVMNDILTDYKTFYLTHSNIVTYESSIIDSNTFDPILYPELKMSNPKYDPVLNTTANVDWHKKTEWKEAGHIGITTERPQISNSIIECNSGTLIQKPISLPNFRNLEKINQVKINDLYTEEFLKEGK
Description: cryo-EM structure; natively purified yeast U1 snRNP, 3.6 Å overall resolution.

The test “yeast Prp42” deals with B2. The description is as above.
For the test “yeast Nam8”, the target named is B5. The description is as above.
A further test concerns the target T3, yeast U1-70K (S. cerevisiae, UniProt Q00916 1-300).
T3 construct: U1-70K of S. cerevisiae U1 snRNP; residues 3-91 built, 94-188 (RRM) docked as homology model; source: endogenous, S. cerevisiae; co-purified in U1 snRNP through the TAP tag on U1A
T3 sequence (looked up): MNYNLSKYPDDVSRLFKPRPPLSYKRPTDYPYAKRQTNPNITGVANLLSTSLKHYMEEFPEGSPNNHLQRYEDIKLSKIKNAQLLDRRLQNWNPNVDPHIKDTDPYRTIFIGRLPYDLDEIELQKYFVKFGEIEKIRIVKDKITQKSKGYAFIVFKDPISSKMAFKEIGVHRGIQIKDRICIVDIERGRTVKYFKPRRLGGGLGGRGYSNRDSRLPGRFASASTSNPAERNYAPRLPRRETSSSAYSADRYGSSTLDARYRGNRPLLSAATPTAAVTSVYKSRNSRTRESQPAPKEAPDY
Described as above.

For the molecule B1, the binding result with yeast Snu71 is “binds”.
With B2, the binding result with yeast Snu71 and in the test with yeast Prp39 was “binds” each time.
Regarding B3, the binding result with yeast Prp42 is reported as “binds”.
With B4, the binding result with yeast Nam8, with yeast Prp42 and with yeast U1-70K was “binds” each time.
Regarding B5, the binding result with yeast Prp39 and with yeast Prp42 was “binds” in each case.
As to B6, the binding result with yeast Snu71, with yeast Nam8 and in the test with yeast Prp42 was “binds” each time.
